We go through three molecules from paper PMC2996635 (Journal of immunology (Baltimore, Md. : 1950), 2010).

Assay in all cases: SEC
Data set [1] deals with hrCD5-His (human CD5 domain 1 and rat CD5 domains 2 and 3, His tag) (human | rat).
The target in data set [2] is mCD5-His (extracellular region of mouse CD5 fused to a His tag) (mouse).
The data set “SEC” concerns the molecule itself.

As for “hrCD5-His (human CD5 domain 1 and rat CD5 domains 2 and 3, His tag)”, the stoichiometry N in data set [1] came to 2.
For the molecule “mCD5-His (extracellular region of mouse CD5 fused to a His tag) (domain or fragment)”, the stoichiometry N in data set [2] is 2.

B1: hCD5-His (extracellular region of human CD5 fused to a His tag) (domain or fragment, UniProt P06127 25-372, looked up)
chain: RLSWYDPDFQARLTRSNSKCQGQLEVYLKDGWHMVCSQSWGRSSKQWEDPSQASKVCQRLNCGVPLSLGPFLVTYTPQSSIICYGQLGSFSNCSHSRNDMCHSLGLTCLEPQKTTPPTTRPPPTTTPEPTAPPRLQLVAQSGGQHCAGVVEFYSGSLGGTISYEAQDKTQDLENFLCNNLQCGSFLKHLPETEAGRAQDPGEPREHQPLPIQWKIQNSSCTSLEHCFRKIKPQKSGRVLALLCSGFQPKVQSRLVGGSSICEGTVEVRQGAQWAALCDSSSARSSLRWEEVCREQQCGSVNSYRVLDAGDPTSRGLFCPHQKLSQCHELWERNSYCKKVFVTCQDPNP
Regarding B1, the “stoichiometry N” value in “SEC” amounted to 2.
